Several values for one entry are separate records, joined by “and”; a condition that tells them apart may be missing. Equal entries are not always repeated.
Tests used:
[1] = molecular target: DEspR on activated neutrophils (species of the neutrophils not stated for FIG. 6 / FIG. 17C); assay: cell-based or functional assay
[2] = molecular target: T1, human DEspR (dual endothelin/VEGF signal peptide receptor) (human) (UniProt B0L3A2); assay: binding to DEspR on intact human cells, triplicate
T1 sequence: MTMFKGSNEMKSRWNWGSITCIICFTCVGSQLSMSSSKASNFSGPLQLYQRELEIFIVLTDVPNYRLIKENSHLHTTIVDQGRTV

EC50 [2]: 178 nM
B1: 6g8 mumab, murine anti-DEspR monoclonal antibody (pan-species reactive anti-Human/Rat/Monkey DEspR mAb), precursor of hu-6g8 (antibody, from a related filing, V domains shown)
VH: EVQLQESGGGLVQPGGSLKLSCAASGFDFSRYWMSWVRQAPGKGLEWIGEINPDSSTINYTPSLKDKFIISRDTAKKTLYLQMSKVRSEDTALYYCARHGRGMDYWSQGTSVTVSS
VL: DIVLTQTNQIMSASVGDRVSVTCKASQNVDSNVAWYQQKPGHSPKALIYSASYRYSRVPDRITGSGSGTDFTLTITNVQSKDLADYFCQQYHSYPLLAFGAGTKLELKR
inhibition of neutrophil (PMN) survival (IC50) [1]: > 198 nM | inhibition of survival (IC50), live cells counted by Trypan blue dye exclusion [1]: > 200 nM and > 30 µg/mL

From patent US20260077028A1
